Measured values: article PMC4501333, “ATF4 licenses C/EBPβ activity in human mesenchymal stem cells primed for adipogenesis”

Legend:
[1] = target: C/EBPβ (heterodimer subunit);ATF4 (heterodimer subunit) (human?;human?, UniProt P17676;P18848 1-345;1-351, |); assay: EMSA; ATF4 added to C/EBPβ; higher affinity than C/EBPβ homodimer; antibodies inhibit heterodimer binding; EMSA: 10 mM HEPES pH 7.8, 50 mM NaCl, 10 mM MgCl2, 5 mM DTT, protease inhibitor, 0.25 mg/ml BSA, 5 ng/ul poly dIdC, 5% glycerol, ~5 fmol probe in 20 ul; native; details: protein: recombinant;recombinant; tags: N-terminal His (pET30a);N-terminal His (pET30a); copies: 1;1; label: 32P
C/EBPβ (heterodimer subunit);ATF4 (heterodimer subunit), sequence (P17676 whole entry, chain 1 of 2): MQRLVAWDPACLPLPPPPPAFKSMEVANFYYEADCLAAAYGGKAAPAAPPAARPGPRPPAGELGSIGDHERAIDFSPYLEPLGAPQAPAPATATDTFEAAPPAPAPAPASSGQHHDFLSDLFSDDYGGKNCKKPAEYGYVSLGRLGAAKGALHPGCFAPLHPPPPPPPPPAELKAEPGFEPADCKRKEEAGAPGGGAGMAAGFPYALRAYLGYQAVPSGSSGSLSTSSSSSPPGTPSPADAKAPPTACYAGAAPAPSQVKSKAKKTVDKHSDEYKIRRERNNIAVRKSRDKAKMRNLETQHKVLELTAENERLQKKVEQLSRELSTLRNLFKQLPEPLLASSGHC
C/EBPβ (heterodimer subunit);ATF4 (heterodimer subunit), sequence (P18848 whole entry, chain 2 of 2): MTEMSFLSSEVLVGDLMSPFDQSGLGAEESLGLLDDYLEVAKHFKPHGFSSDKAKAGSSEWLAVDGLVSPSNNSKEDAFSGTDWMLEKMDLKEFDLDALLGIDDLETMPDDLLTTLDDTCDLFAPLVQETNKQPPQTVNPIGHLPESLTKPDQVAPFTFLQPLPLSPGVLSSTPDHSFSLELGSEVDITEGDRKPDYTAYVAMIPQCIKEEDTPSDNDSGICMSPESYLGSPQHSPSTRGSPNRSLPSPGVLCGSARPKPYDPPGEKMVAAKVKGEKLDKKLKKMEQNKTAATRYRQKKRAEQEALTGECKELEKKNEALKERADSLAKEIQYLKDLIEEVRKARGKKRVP

ATF4 = ATF4 (UniProt P18848 1-351); assay: EMSA; ATF4 alone, up to 90 uM; probe 0.25 nM; EMSA: 10 mM HEPES pH 7.8, 50 mM NaCl, 10 mM MgCl2, 5 mM DTT, protease inhibitor, 0.25 mg/ml BSA, 5 ng/ul poly dIdC, 5% glycerol, ~5 fmol probe in 20 ul; native; details: protein: recombinant; tags: N-terminal His (pET30a); chain copies: 2; label: 32P
ATF4, sequence (P18848 whole entry): as the sequence (P18848 whole entry, chain 2 of 2) above

C/EBPβ = C/EBPβ (UniProt P17676 1-345); assay: EMSA; C/EBPβ 100-900 nM; preferred site; probe 0.25 nM; EMSA: 10 mM HEPES pH 7.8, 50 mM NaCl, 10 mM MgCl2, 5 mM DTT, protease inhibitor, 0.25 mg/ml BSA, 5 ng/ul poly dIdC, 5% glycerol, ~5 fmol probe in 20 ul; native; details: protein: recombinant; tags: N-terminal His (pET30a); chain copies: 2; label: 32P
C/EBPβ, sequence (P17676 whole entry): as the sequence (P17676 whole entry, chain 1 of 2) above

Binder	binding result [1]	binding result (ATF4)	binding result (C/EBPβ)
hybrid (ATF4 motif) EMSA probe (dsDNA) DNA 1: GAGCAAATCTGATGCAATATAAGTC DNA 2: GGACTTATATTGCATCAGATTTGCT	binds	no binding	–
palindromic C/EBP EMSA probe (dsDNA) DNA 1: GAGCAAATATTGCGCAATATAAGTC DNA 2: GGACTTATATTGCGCAATATTTGCT	–	no binding	binds
